Reference: paper PMC9927353

Target: FleQ (Pseudomonas aeruginosa PAO1) (UniProt G3XCV0)
Experiment: EMSA

Chain of FleQ (Pseudomonas aeruginosa PAO1) (G3XCV0 whole entry): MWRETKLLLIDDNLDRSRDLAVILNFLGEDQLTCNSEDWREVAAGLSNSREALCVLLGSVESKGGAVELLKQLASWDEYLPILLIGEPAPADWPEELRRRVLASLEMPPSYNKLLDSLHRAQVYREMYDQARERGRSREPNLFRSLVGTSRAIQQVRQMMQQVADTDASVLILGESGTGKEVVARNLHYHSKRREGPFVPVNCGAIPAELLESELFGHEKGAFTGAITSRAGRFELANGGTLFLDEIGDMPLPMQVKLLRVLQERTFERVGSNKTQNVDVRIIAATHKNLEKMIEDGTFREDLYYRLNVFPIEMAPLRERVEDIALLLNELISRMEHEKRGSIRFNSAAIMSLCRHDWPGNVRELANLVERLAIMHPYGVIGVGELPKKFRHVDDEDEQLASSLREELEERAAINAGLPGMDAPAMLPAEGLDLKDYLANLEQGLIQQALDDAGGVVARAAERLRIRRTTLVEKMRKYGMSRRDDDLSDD

GAGTTGCAGCCTTTCCTTGCCGTCAGCCATGGCGCACCTCCGGACGAGGGTACGCGCAGGGGTCTTCGAGATGGCTCATTATTCTTGTCTCCACTCTGTCAGAGGCCGTGTCTTGCGCACGGATGAGCGGATTATTGGCGGCGGATGTAAGACGCCGTTGAACGCGCGGATCGAAGATGTAAAAAGCTGTAAGGAAGTTGTTCGCCGCG (double strand) [lysP promoter (4981)]
binding: binds
